Consider 1 molecule from PMC7017353, “Delineating the Molecular Basis of the Calmodulin–bMunc13-2 Interaction by Cross-Linking/Mass Spectrometry—Evidence for a Novel CaM Binding Motif in bMunc13-2” (Cells, 2020).

Where no end group is shown, it is not given here. [ ]: non-standard residue; d: D form. Bpa = N[C@@H](Cc1ccc(C(=O)c2ccccc2)cc1)C(=O)O

The target in this test is recombinant CaM (UniProt P0DP23 1-149). Nature of the test: cross-linking; photoaffinity labelling (PAL)-based competition: CaM (5 µM) with segment-C-Bpa or segment-CS-Bpa (5 µM), competitor peptides 0–250 µM; 50 mM HEPES pH 7.2, 150 mM KCl, 5 mM DTT, 2 h RT, 200 µM Ca2+ or 2 mM EGTA; UV; SDS-PAGE and MALDI-TOF-MS. As to conditions: both partners purified.

CINN[Bpa]KNVLREKRLRQKKLLQELV (source: synthetic peptide) [Segment-CS-Bpa]: the binding result is on record as “binds”.
